{"source": "patent US7553821B2", "about": "“Methods for selectively modulating survivin apoptosis pathways” (Yale University, priority 2000, dated 2009)", "molecules": {"B1": {"name": "caspase-9(C287A): caspase 9 dominant negative mutant (Cys287→Ala) (protein, UniProt P55211 1-416, looked up, variant C287A)", "chain": "MDEADRRLLRRCRLRLVEELQVDQLWDALLSRELFRPHMIEDIQRAGSGSRRDQARQLIIDLETRGSQALPLFISCLEDTGQDMLASFLRTNRQAAKLSKPTLENLTPVVLRPEIRKPEVLRPETPRPVDIGSGGFGDVGALESLRGNADLAYILSMEPCGHCLIINNVNFCRESGLRTRTGSNIDCEKLRRRFSSLHFMVEVKGDLTAKKMVLALLELAQQDHGALDCCVVVILSHGCQASHLQFPGAVYGTDGCPVSVEKIVNIFNGTSCPSLGGKPKLFFIQAAGGEQKDHGFEVASTSPEDESPGSNPEPDATPFQEGLRTFDQLDAISSLPTPSDIFVSYSTFPGFVSWRDPKSGSWYVETLDDIFEQWAHSEDLQSLLLRVANAVSVKGIYKQMPGCFNFLRKKLFFKTS"}, "B2": {"name": "caspase-8(C360S): caspase-8 dominant negative mutant obtained from Dr. V. Dixit (protein, UniProt Q14790 1-479, looked up, variant C360S)", "chain": "MDFSRNLYDIGEQLDSEDLASLKFLSLDYIPQRKQEPIKDALMLFQRLQEKRMLEESNLSFLKELLFRINRLDLLITYLNTRKEEMERELQTPGRAQISAYRVMLYQISEEVSRSELRSFKFLLQEEISKCKLDDDMNLLDIFIEMEKRVILGEGKLDILKRVCAQINKSLLKIINDYEEFSKERSSSLEGSPDEFSNGEELCGVMTISDSPREQDSESQTLDKVYQMKSKPRGYCLIINNHNFAKAREKVPKLHSIRDRNGTHLDAGALTTTFEELHFEIKPHDDCTVEQIYEILKIYQLMDHSNMDCFICCILSHGDKGIIYGTDGQEAPIYELTSQFTGLKCPSLAGKPKVFFIQASQGDNYQKGIPVETDSEEQPYLEMDLSSPQTRYIPDEADFLLGMATVNNCVSYRNPAEGTWYIQSLCQSLRERCPRGDDILTILTEVNYEVSNKDDKKNMGKQMPQPTFTLRKKLVFPSD"}}, "key": {"HeLa cells [1]": {"test_system": "HeLa cells", "assay": "DNA content by propidium iodide staining and flow cytometry in transfected HeLa cells", "assay_type": "cell-based", "conditions": "inhibitor 20 μM, 48 h", "description": "HeLa cells were transfected with GFP-survivin(T34A) in the presence or in the absence of 20 μM of the caspase inhibitor, Z-VAD-fmk. Gated GFP-expressing cells were analyzed 48 h after transfection for DNA content by propidium iodide staining and flow cytometry. The percentages of apoptotic cells with sub-G1 (hypodiploid) […] DNA content are indicated. Apoptotic HeLa cells in GFP-vector transfectants were 8%. Data are representative of one experiment out of at least three independent determinations.\nTransfection experiments. For transient transfection, HeLa cells in C-6 tissue culture plates (Costar, Cambridge, Mass.) at ˜60-70% confluency, were incubated in 1 ml of serum-free OptiMEM medium (Life Technologies, Gaithersburg, Md.) for 20 min, and transfected with 2.5 μg of the various plasmid cDNAs plus 9 μl Lipofectamine (Life Technologies). After a 5 h incubation at 37° C., the mixture was aspirated and substituted with complete growth medium for 48-72 h. To generate stable YUSAC-2 transfectants, a survivin(T34A) cDNA was inserted into the HindIII-SpeI sites of the pTet-splice vector (Dr. D. Schatz, Yale University School of Medicine), downstream of the regulatory sequences of the Tet-resistance operon (TetO). […] Gated GFP-expressing cells were analyzed for DNA content by flow cytometry on a FACSort (Becton Dickinson, San Jose, Calif.) using a Cell Quest software. […]"}, "HeLa cells [2]": {"test_system": "HeLa cells", "assay": "Nuclear morphology of apoptosis (DAPI) in transfected HeLa cells", "assay_type": "cell-based", "conditions": "for HeLa cell apoptosis induced by survivin(T34A), effect of co-transfected dominant negative caspase: co-transfection", "from_the_text": "HeLa cells transfected with GFP-vector (vector), GFP-survivin(T34A) (T34A), or GFP-caspase-9 (Met^1-Asp^330) (caspase-9), were scored morphologically for nuclear integrity by DAPI staining after 48-h. Arrows, nuclear fragmentation and chromatin condensation in GFP-expressing cells.\nThe experimental procedures are the same as in A. Data are the meaνSEM of four independent experiments.\nHeLa cells were transfected with the various indicated combinations of GFP-constructs, with or without etoposide (10 μg/ml) or TNFα (10 ng/ml) plus cycloheximide (10 μg/ml), harvested after 48 h, and GFP-labeled cells were morphologically scored for nuclear fragmentation by DAPI staining, as described in FIG. 2B. DN, dominant negative. Data are the mea±SEM of four independent experiments.\nTransfection experiments. For transient transfection, HeLa cells in C-6 tissue culture plates (Costar, Cambridge, Mass.) at ˜60-70% confluency, were incubated in 1 ml of serum-free OptiMEM medium (Life Technologies, Gaithersburg, Md.) for 20 min, and transfected with 2.5 μg of the various plasmid cDNAs plus 9 μl Lipofectamine (Life Technologies). After a 5 h incubation at 37° C., the mixture was aspirated and substituted with complete growth medium for 48-72 h. To generate stable YUSAC-2 transfectants, a survivin(T34A) cDNA was inserted into the HindIII-SpeI sites of the pTet-splice vector (Dr. D. Schatz, Yale University School of Medicine), downstream of the regulatory sequences of the Tet-resistance operon (TetO). YUSAC-2 cells were transfected with 0.8 μg pTet-T34A, 0.8 μg of the transactivation/selection plasmid ptTA-Neo and 5 μl Lipofectamine in 1 ml of OptiMem. Forty-eight h after transfection, cells were re-plated at low density in 15×150 mm plates in growth medium containing 1.5 mg/ml Geneticin (G418, Life Technologies), 2 mM sodium hydroxide and 0.5 μg/ml Tet (Sigma, St. Louis, Mo.) (selection medium). After a 3-week culture, ninety-six individual clones were screened for differential growth in the presence or absence of Tet. […] Flow cytometry. HeLa cells transfected with the various GFP constructs in the presence or in the absence of the broad-spectrum caspase inhibitor Z-VAD-fmk (20 μM) were harvested after 48-h (non-adherent and adherent cells), washed in PBS, pH 7.0, and fixed in cold 70% ethanol for 30 min on ice. After washes in PBS, cells (10×10^6/ml) were stained with 25 μg/ml propidium iodide (Sigma), 0.05% Triton X-100 and 100 μg/ml RNAse A (Boehringer Mannheim, Indianapolis, Ind.) for 45 min at 22° C. Gated GFP-expressing cells were analyzed for DNA content by flow cytometry on a FACSort (Becton Dickinson, San Jose, Calif.) using a Cell Quest software. In other experiments, F5-C4 cells were synchronized at the G1/S boundary by culture with 5-mM thymidine for 16 h at 37° C., in the presence or in the absence of Tet. At the end of the incubation, cells were released from the thymidine block, and harvested at 3-h intervals for DNA content analysis by propidium iodide staining and flow cytometry, or, alternatively, for caspase-9 processing by Western blotting (see below). TUNEL staining. Internucleosomal DNA fragmentation of F5.C4 cells in the presence or in the absence of Tet was carried out by end-labeling with terminal deoxynucleotidyl transferase (TdT) and peroxidase-conjugated anti-digoxigenin antibody using the ApopTag kit (Intergen, Purchase, N.Y.), as described previously (Grossman et al., 1999). Immunoprecipitation and Western blotting. Asynchronously growing or synchronized HeLa cells were lysed in 200 μl of lysis buffer containing 50 mM Tris, pH 7.5, 1% NP-40, 0.25% DOC, 150 mM NaCl, 1 mM PMSF, 10 μg/ml aprotinin, 10 μg/ml leupeptin, 10 μg/ml pepstatin, 1 mM Na3VO4, 20 mM NaF, 0.2 mM EGTA, 1 mM EDTA, pH 8.0, for 30 min at 4° C. Insoluble material was removed by centrifugation at 14,000 rpm for 15 min, and two-hundred μg of protein lysate was pre-absorbed with 25 μl of a 50:50 Protein A Sepharose slurry (Pharmacia) for 3 h at 4° C. with constant agitation. […]"}}, "note": "Residues, ends and D or L forms follow the SMILES beside them. *: point of attachment. Cbz = O=C(OCc1ccccc1)*; CH2F = FC*", "data": [{"molecule": "COC(=O)C[C@H](NC(=O)[C@H](C)NC(=O)[C@@H](NC(=O)OCc1ccccc1)C(C)C)C(=O)CF", "note": "[Z-VAD-fmk, reference compound] (Cbz-Val-Ala-Asp(OMe)-CH2F)", "values": [{"measurement": "effect on sub-G1 DNA content induced by GFP-survivin(T34A)", "setting": "HeLa cells [1]", "value": "reversed"}]}, {"molecule": "Leu^64ÕAla: another survivin point mutant in the Baculovirus IAP repeat (BIR), control [reference compound]", "values": [{"measurement": "ability to induce spontaneous apoptosis upon transient transfection", "setting": "HeLa cells [2]; survivin BIR domain mutants", "value": "did not cause apoptosis"}]}, {"molecule": "B1", "values": [{"measurement": "HeLa cell apoptosis induced by survivin(T34A), effect of co-transfected dominant negative caspase", "setting": "HeLa cells [2]; 48 h", "value": "reversed HeLa cell apoptosis induced by survivin(T34A) to background levels"}, {"measurement": "nuclear fragmentation and chromatin condensation induced by etoposide", "setting": "HeLa cells [2]; etoposide 10 μg/ml, 48 h", "value": "inhibited"}]}, {"molecule": "B2", "values": [{"measurement": "cell death induced by TNFα/cycloheximide", "setting": "HeLa cells [2]; TNFα 10 ng/ml plus cycloheximide 10 μg/ml, 48 h", "value": "completely inhibited"}, {"measurement": "HeLa cell apoptosis induced by survivin(T34A), effect of co-transfected dominant negative caspase", "setting": "HeLa cells [2]; 48 h", "value": "did not reduce apoptosis"}]}]}
